1 substance from paper PMC4598300 can be followed below.

This assay deals with tag-free PTEN (human) (UniProt P60484). The assay can be described thus: SEC-SAXS.

“tag-free PTEN, P60484 1-403 (enzyme; other documents disagree on this pair)” displayed a stoichiometry N of 2.

What is called stoichiometry N is a count of units in the complex or per binding partner.
